Reference: the nanobody polyreactivity screen of Harvey et al. (2022)

Test: yeast display, Sf9 membrane polyspecificity reagent, FACS + sequencing; frameworks hold sequencing errors
Outline: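 In a synthetic yeast display library (Saccharomyces cerevisiae BJ5465), nanobody expression was induced with galactose for 36–48 hours. FACS gates were set low and high (top ~1%) using anti-HA fluorescence for expression and streptavidin fluorescence for binding of the Sf9 membrane reagent. Each polyreactivity label is drawn from the gate of origin.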

## QVQLVESGGGLVQAGGSLRLSCSASGLTLAPNAMGWYRQAPGKERELVAAITRSGGDTYYADSVKGRFTISRDNAKNTVYLQMNSLKPEDTAVYYCAADYWFRYGTYEYWGQGTQVTVSS
  polyreactivity (PSR sort gate): high polyreactivity

## QVQLVESGGGLVQAGGSLRLSCSASGRTFKVYAMGWYRQAPGKERELVAAISYSGAGTRYADSVKGRFTISRDNAKNTVYLQMNSLKPEDTAVYYCNTDAWARVKRYEYWGQGTQVTVSS
  polyreactivity (PSR sort gate): low polyreactivity

## QVQLVESGGGLVQAGGSLRLSCSASGRTFYSYAMGWYRQPRGKERELVATIRRGGRTNYADSVKGRFTISRDNAKNTVYLLMNSLKPEDTAVYYCAAEDYRSLVTSTYDYWGQGTQVAVSS
  polyreactivity (PSR sort gate): low polyreactivity

## QVQLVESGGGLVQAGGSLRLSCSASGSIFDGYAMGWYRQAPGKEREIVAAISKGGTRTYYADSVMGRFTISRDNAKNTVYLQMNSLKPEDTAFYYCNAYYRREPDDGDYDYWGQGSQVTVSS
  polyreactivity (PSR sort gate): high polyreactivity

## QVQLVESGGGLVQAGGSLRLSCSASGSIFSGNTMGWYRQAPGKERELVAAISGGGSTNYADSVKGRFTISRDNAKNTVYLQMNSLKPEDTAVYYCAKDLSLGASRMDYWGQGTQVTVSS
  polyreactivity (PSR sort gate): low polyreactivity

## QVQLVESGGGLVQAGGSLRLSCSASGSIIGHNAMGWYRQAPGKEREIVAAITWRGSNTYYADSVKGRFTISRDNAKNTVYLQMNSLKPEDTAVYYCAAEFYYRTQWYYYWGQGTQVTVSS
  polyreactivity (PSR sort gate): high polyreactivity

## QVQLVESGGGLVQAGGSLRLSCSASGSTFEGYAMGWYRQAPGKERELVAAITSTGSTNYADSVKGRFTISRDNAKNTVYLQMNSLKPEDTAVYYCAGYPGRVYYFLGHDYWVQGTQVTVSS
  polyreactivity (PSR sort gate): low polyreactivity

## QVQLVESGGGLVQAGGSLRLSCSASGSTFESNAMGWYRQAPGKERELVASISGSGGSTFYADSVKGRFTISRDNAKNTVYLQMISLKPEDTAVYYCAAYKEPYYEEYGYWGQGTQVTVSS
  polyreactivity (PSR sort gate): low polyreactivity

## QVQLVESGGGLVQAGGSLRLSCSASGSTFGRNSMGRYRQAPGKEREVVAAISWRSTRTYYADSVKGRFTISRDHAKNTVDLQMNSLKPEDNAGYYCAVYYFYPSTNCYHYDYWGQGTQVTVSS
  polyreactivity (PSR sort gate): high polyreactivity

## QVQLVESGGGLVQAGGSLRLSCSASGSTFGRYAMGWYRQAPGKERELVAAISARGGSTYYADSVKGRFTISRDNAKNTVYLQMNSLKPEDTAVYYCNVDYLLHGGRFDYWGQGTQVTVSS
  polyreactivity (PSR sort gate): high polyreactivity

## QVQLVESGGGLVQAGGSLRLSCSASGSTFRQYAMGWYRQAPGKERELVAAITWRGDNTYYADSVKGRFTISRDNAKNTVYLQMNSLKPEDTADYYCGARWSYRLYWGYGYWGQGTQVTVSS
  polyreactivity (PSR sort gate): low polyreactivity

## QVQLVESGGGLVQAGGSLRLSCSASGSTFYPYAMGWYRQAPGKERELVAAISSGGSTSYADSVKGRFTISRDNAKNTVYLQMNSLKPEDTAVYYCNASSPGAVPVYDYDYWGQGTQVTVSS
  polyreactivity (PSR sort gate): low polyreactivity

## QVQLVESGGGLVQAGGSLRLSCSASGYTFAWYAMGWYRQAPGKERELVAAITVSGGSTYYADSVKGRFTISRDNAKNTVYLQMNSLKPEDTAVYYCAADYAPLDLYQVSTVYSSGDYWGQGTQVTVSS
  polyreactivity (PSR sort gate): low polyreactivity

## QVQLVESGGGLVQAGGSLRLSCSATGRIFVLYDMGWYRQAPGKERELVAGISGSGGRTYYADSVKGRFTISRDNAKNTVYLQMNSLKAEDTAVYYFNALGYYWYRPYVNSNGGYWGQGTLVTVSS
  polyreactivity (PSR sort gate): high polyreactivity

## QVQLVESGGGLVQAGGSLRLSCSDSGSTFWLNAMGWYRQPPGKEREYVAAITWSSGSTYYADSVKGSFTISRDNAKNTVYLQMNSLKPEDTAVYYCNADYYFTSYEYEYWGQGTQVTVSS
  polyreactivity (PSR sort gate): low polyreactivity

## QVQLVESGGGLVQAGGSLRLSCSSSGRIFLNSMGWYRQAPGKEREFVAAITRSADSTYYADSVKGRFTISRDNAKNTVYLQMNSLKPEDTAVYYCNKPFPYYPDGPNGYDYWGHGTQVTVSS
  polyreactivity (PSR sort gate): low polyreactivity

## QVQLVESGGGLVQAGGSLRLSCTASGTIVPVYAMGWYRQAPGKERELVADITYTTGSTYYAVSVKGRFTISRENAKNSVYLQMNSLKPEDTAVYYCAKDFGFQSDSWGQGTQVTVSS
  polyreactivity (PSR sort gate): low polyreactivity

## QVQLVESGGGLVQAGGSLRLSCVASGNIFVFYLMGWYRQAPGKERELVASISSTGNTYYADSVKGRFTISRDNAKNTVYLQMNSLKPEDTAVYYCAADSHQNVSGWLRWPRMDYWGQGTQVTVSS
  polyreactivity (PSR sort gate): low polyreactivity

## QVQLVESGGGLVQAGGSLRLSCVASGRTFFRYAMGWYRQAPGKERELVAVITRGGSTYYADSVKGRFTISRDNAKNTVYLQMNSLKPEDTAVYYCNADGRVQRKYDYWGQGTQVTVSS
  polyreactivity (PSR sort gate): high polyreactivity

## QVQLVESGGGLVQAGGSLRLSCVASGRTLNYNVMGWYRQAPGKERELVAAISWSGGSTYADSVKGRFTISRDNAKNTVYLQMNSLKPEDTAVYYCNKRFTTRVNRRPVYYWGQGTQVTVSS
  polyreactivity (PSR sort gate): low polyreactivity

## QVQLVESGGGLVQAGGSLRLSCVASGSIFKQYAMGWYRQAPGKERELVAGISKTGGRTYYADSVKGRFTISRDNAKNTVYLQMNSLKPEDTAVYYCAAYFRSDYGYWGQGTQVTVSS
  polyreactivity (PSR sort gate): high polyreactivity

## QVQLVESGGGLVQAGGSLRLSCVASGSIFRGNAMGWYRQAPGKERELVASISKGGGSTYYADSVKGRFIISRDNAKNTVYLQIHSLKPEDTAVYYCYKDYDRRDFYYWGLGTQVTVSS
  polyreactivity (PSR sort gate): low polyreactivity

## QVQLVESGGGLVQAGGSLRLSFAASGFIFWNYPMGWYRQAPGKERELVAAISKRGGSTYYADSVKGRFTISRDNAKHNVYLQMNSLKPEDTAVYYCNAGRTYTALNGDYWGQGTQVTVSS
  polyreactivity (PSR sort gate): high polyreactivity

## QVQLVESGGGLVQAGGSLRLSFAASGIIFSHNVMGWYRQAPGKERELVAAITYSGGSTYYADSVKGRFTISRDNAKNTVYLLMNSLKPEDTAVYYCNALGVSRRDYDYWGQGTQVTVSS
  polyreactivity (PSR sort gate): low polyreactivity

## QVQLVESGGGLVQAGGSLRLSFAASGITFDSYAKGWYRQAPGKERELVATISRSGTTTYYADSVKGRFTISRDNAKNTVYLQMNSLKPEDTAVYYCNTLRAYWTYHFYGAVRDGYDYWGQGTQVTVSS
  polyreactivity (PSR sort gate): low polyreactivity

## QVQLVESGGGLVQAGGSLRLSFAASGITFPYYAMGWYRQAPGKEREFVAAISSSGGSTYYADSVKGRFTISRDNAKKTVYLKMHCLKAEDTEVYYCAAGVYGRSSYSKPVLYEYWGQGTQVTVSS
  polyreactivity (PSR sort gate): high polyreactivity

## QVQLVESGGGLVQAGGSLRLSFAASGLIFSYYAMVWYRQAPGKERELVAAISSSGGSTYYADSVKGRFTISRDYAKNTVYLQMNSLKPEDTAVYYCARKLTRRFYQYDYWGQGTQVTVSS
  polyreactivity (PSR sort gate): high polyreactivity

## QVQLVESGGGLVQAGGSLRLSFAASGRIFLRYAMVWYRHAPGKERELVAAISSRGGRTYYADSVKGRFTISRDNAKNTVYLQMNSLKPEDTAVYYCAAEGYYVTPFDYWGQGTQVTVSS
  polyreactivity (PSR sort gate): high polyreactivity

## QVQLVESGGGLVQAGGSLRLSFAASGRIFTYYAMGWYRQAPGKERELVASISRSGGNTYYADSVKGRFTISRDNAKNTVYLQMNSLKPEDTAVYYCAAVYSRLDYWGQGTQVTVSS
  polyreactivity (PSR sort gate): high polyreactivity

## QVQLVESGGGLVQAGGSLRLSFAASGRTFGRYAMGWYRPATGKERELVATISSRGGNTYYADSVKGRFTISRDNAQKTVYLEMNSLKAEDTAVYYCAAQTYKWYDWGQGTQVTVSS
  polyreactivity (PSR sort gate): high polyreactivity

## QVQLVESGGGLVQAGGSLRLSFAASGRTFTWNVMGWYRQAPGKERELVAAITTDDRTYADSVKGRFTISRDNAKNTVYLQMNSLKPEDTAVYYCATVVAWSSRPVGEDYWGQGTQVTVSS
  polyreactivity (PSR sort gate): low polyreactivity

## QVQLVESGGGLVQAGGSLRLSFAASGSIFPVYAMGWYKQAPGKERELVAAITTAGRTYYADSVKGRFTISRDNAKNTVYLQMNSLKPEDTAVYYCNARSRKVLTVDGGYWGQGTQVTVSS
  polyreactivity (PSR sort gate): high polyreactivity
